Test results as given in IntAct's records for PubMed 11454208.

B1: Transcriptional repressor OPI1 (Saccharomyces cerevisiae), P21957 (parent)
chain: MSENQRLGLSEEEVEAAEVLGVLKQSCRQKSQPSEDVSQADKMPASESSTTPLNILDRVSNKIISNVVTFYDEINTNKRPLKSIGRLLDDDDDEHDDYDYNDDEFFTNKRQKLSRAIAKGKDNLKEYKLNMSIESKKRLVTCLHLLKLANKQLSDKISCLQDLVEKEQVHPLHKQDGNARTTTGAGEDETSSDEDDDDEEFFDASEQVNASEQSIVVKMEVVGTVKKVYSLISKFTANSLPEPARSQVRESLLNLPTNWFDSVHSTSLPHHASFHYANCEEQKVEQQQQQQQQQQQQQLLQQQLLQQQQQKRNKDGDDSASPSSSVTANGKVLILAKESLEMVRNVMGVVDSTLGKAEEWVKQKQEVKEMIRERFLQQQQQYRQQQQKDGNYVKPSQDNVDSKD
partner: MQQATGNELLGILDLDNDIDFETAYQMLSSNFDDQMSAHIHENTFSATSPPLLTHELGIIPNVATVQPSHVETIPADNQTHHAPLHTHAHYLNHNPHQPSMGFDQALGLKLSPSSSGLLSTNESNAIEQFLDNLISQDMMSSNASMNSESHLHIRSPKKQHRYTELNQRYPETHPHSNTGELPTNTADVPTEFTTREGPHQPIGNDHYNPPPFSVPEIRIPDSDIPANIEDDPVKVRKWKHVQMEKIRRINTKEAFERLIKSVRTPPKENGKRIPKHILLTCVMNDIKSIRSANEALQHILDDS

Variants of: B1
Details: with ino2_yeast INO2, P26798

**Q.** How did the “effect of a mutation on the interaction” value turn out when MSENQRLGLSEEEVEAAEVLGVLKQSCRQKSQPSEDVSQADKMPASESSTTPLNILDRVSNKIISNVVTFYDEINTNKRPLKSIGRLLDDDDDEHDDYDYNDDEFFTNKRQKLSRAIAKGKDNLKEYKLNMSIESKKRLVTCLHLLKLANKQLSDKISCAQDLVEKEQVHPLHKQDGNARTTTGAGEDETSSDEDDDDEEFFDASEQVNASEQSIVVKMEVVGTVKKVYSLISKFTANSLPEPARSQVRESLLNLPTNWFDSVHSTSLPHHASFHYANCEEQKVEQQQQQQQQQQQQQLLQQQLLQQQQQKRNKDGDDSASPSSSVTANGKVLILAKESLEMVRNVMGVVDSTLGKAEEWVKQKQEVKEMIRERFLQQQQQYRQQQQKDGNYVKPSQDNVDSKD [L160A] was run?
**A.** Its value is “decreasing interaction”.
